According to article PMC11229326, “Structural characterization of two prototypical repressors of SorC family reveals tetrameric assemblies on DNA and mechanism of function” (Nucleic Acids Research, 2024):

How the values were obtained:
[1] = target: T1, DeoR (Bacillus subtilis, UniProt P39140 2-313); experiment: X-ray crystallography; 3.7 A; protein about 8 mg/ml; 75 mM CaCl2, 25 mM MgCl2; MST: 50 mM Tris-HCl pH 7.5, 150 mM NaCl, 50 mM MgCl2, 2 mM EDTA, 0.02% beta-mercaptoethanol; DeoR SEC mixes incubated 30 min on ice; CggR storage 20 mM Tris-HCl pH 7.5, 100 mM NaCl, 0.02% beta-mercaptoethanol, complex formed 30 min on ice; conditions: protein: recombinant; tags: N-terminal GIDPFT cloning artifact after TEV cleavage (His6-V5 removed); chain copies: 4; blunt
T1 sequence: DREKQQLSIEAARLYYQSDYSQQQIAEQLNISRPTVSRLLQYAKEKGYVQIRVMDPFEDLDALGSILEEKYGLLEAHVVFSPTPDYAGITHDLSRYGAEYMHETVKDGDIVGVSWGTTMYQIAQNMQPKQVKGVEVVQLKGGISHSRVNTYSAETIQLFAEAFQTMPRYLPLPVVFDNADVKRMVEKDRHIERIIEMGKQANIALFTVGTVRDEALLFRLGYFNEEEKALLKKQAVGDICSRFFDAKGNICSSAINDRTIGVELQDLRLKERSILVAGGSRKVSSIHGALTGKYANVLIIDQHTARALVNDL

[2] = target: T1, DeoR; experiment: SEC; about 56 uM DeoR, protein:DNA 2:1; MST: 50 mM Tris-HCl pH 7.5, 150 mM NaCl, 50 mM MgCl2, 2 mM EDTA, 0.02% beta-mercaptoethanol; DeoR SEC mixes incubated 30 min on ice; CggR storage 20 mM Tris-HCl pH 7.5, 100 mM NaCl, 0.02% beta-mercaptoethanol, complex formed 30 min on ice; conditions: protein: recombinant; tags: N-terminal GIDPFT cloning artifact after TEV cleavage (His6-V5 removed); chain copies: 4; blunt
[3] = target: CggR (Bacillus subtilis, UniProt O32253 1-340); experiment: cryo-EM; 4.3 A; tetramer, no effector; MST: 50 mM Tris-HCl pH 7.5, 150 mM NaCl, 50 mM MgCl2, 2 mM EDTA, 0.02% beta-mercaptoethanol; DeoR SEC mixes incubated 30 min on ice; CggR storage 20 mM Tris-HCl pH 7.5, 100 mM NaCl, 0.02% beta-mercaptoethanol, complex formed 30 min on ice; conditions: protein: recombinant; tags: N-terminal GIDPFT cloning artifact after TEV cleavage (His6-V5 removed); chain copies: 4; blunt
[4] = target: T1, DeoR; experiment: SEC; about 56 uM DeoR, protein:DNA 4:1; MST: 50 mM Tris-HCl pH 7.5, 150 mM NaCl, 50 mM MgCl2, 2 mM EDTA, 0.02% beta-mercaptoethanol; DeoR SEC mixes incubated 30 min on ice; CggR storage 20 mM Tris-HCl pH 7.5, 100 mM NaCl, 0.02% beta-mercaptoethanol, complex formed 30 min on ice; conditions: protein: recombinant; tags: N-terminal GIDPFT cloning artifact after TEV cleavage (His6-V5 removed); chain copies: 4; blunt
[5] = target: T1, DeoR; experiment: MST; DeoR 4 uM; 50 mM MgCl2; Hill coefficient slightly below 1; MST: 50 mM Tris-HCl pH 7.5, 150 mM NaCl, 50 mM MgCl2, 2 mM EDTA, 0.02% beta-mercaptoethanol; DeoR SEC mixes incubated 30 min on ice; CggR storage 20 mM Tris-HCl pH 7.5, 100 mM NaCl, 0.02% beta-mercaptoethanol, complex formed 30 min on ice; conditions: protein: recombinant; tags: N-terminal GIDPFT cloning artifact after TEV cleavage (His6-V5 removed); chain copies: 4; blunt
[6] = target: the molecule itself; experiment: crystal structure; DeoR co-crystallised with the 18 bp DNA duplex OL18 (left half-operator); hanging drop, 18°C; two dimers in the asymmetric unit, tetramer formed with a symmetry-related dimer; 3.7 Å
[7] = target: the molecule itself; experiment: cryo-EM 2D classification; purified CggR-OLR complex (0.86 mg/ml) with 2 mM FBP, about 15 min on ice
[8] = target: the molecule itself; experiment: cryo-EM structure; CggR with the 45 bp operator DNA OLR (molar ratio 4:1.5), SEC-purified complex, 0.86 mg/ml; C2 symmetry, 4.3 Å

B1: OL18 (dsDNA)
DNA 1: ATTGAACAAAATTTCAAT
DNA 2: ATTGAAATTTTGTTCAAT
Q: Does B1 bind [1]?
A: binds

B2: OR24 (dsDNA)
DNA 1: TACCAATTTACATATGTTCAAAAG
DNA 2: CTTTTGAACATATGTAAATTGGTA
Q: Does B2 bind [2]?
A: no binding

B3: CggR OLR (45 bp) (dsDNA)
DNA 1: TGACGGGACGTTTTTTGTCATAGCGGGACATATAATGTCCAGCAA
DNA 2: TTGCTGGACATTATATGTCCCGCTATGACAAAAAACGTCCCGTCA
Q: Does B3 bind [3]?
A: binds

B4: OL44 (dsDNA)
DNA 1: CACGTTCAAACCTTTCATTGAACAAAATTTCAATTACCAATTTACA
DNA 2: TGTAAATTGGTAATTGAAATTTTGTTCAATGAAAGGTTTGAACGTG
Q: Does B4 bind [4]?
A: no binding

B5: OLR65 (dsDNA)
DNA 1: GTGACACGTTCAAACCTTTCATTGAACAAAATTTCAATTACCAATTTACATATGTTCAAAAGTCG
DNA 2: CGACTTTTGAACATATGTAAATTGGTAATTGAAATTTTGTTCAATGAAAGGTTTGAACGTGTCAC
Q: Which Kd [5] does the source give for B5 here?
A: ~30 µM

B6: DeoR from Bacillus subtilis (deoxyribonucleoside regulator, SorC/DeoR subfamily repressor) (natural protein)
chain: GIDPFTDREKQQLSIEAARLYYQSDYSQQQIAEQLNISRPTVSRLLQYAKEKGYVQIRVMDPFEDLDALGSILEEKYGLLEAHVVFSPTPDYAGITHDLSRYGAEYMHETVKDGDIVGVSWGTTMYQIAQNMQPKQVKGVEVVQLKGGISHSRVNTYSAETIQLFAEAFQTMPRYLPLPVVFDNADVKRMVEKDRHIERIIEMGKQANIALFTVGTVRDEALLFRLGYFNEEEKALLKKQAVGDICSRFFDAKGNICSSAINDRTIGVELQDLRLKERSILVAGGSRKVSSIHGALTGKYANVLIIDQHTARALVNDL
notes: cloning artifact that remains at the N-terminus after TEV PR cleavage; DBD residues 1-55, EBD residues 56-313; in the crystal model residue T1 is the last residue of the cloning artifact; also called apo-DeoR; source: E. coli BL21 (DE3), purified (Ni-NTA, TEV PR cleavage, reverse Ni-NTA); LB broth for structural studies, minimal medium for mass photometry and SEC; not shown: His6, N-terminal, …
Q: Which “stoichiometry N” value [6] does the source give for B6 here?
A: 4

B7: CggR from Bacillus subtilis (central glycolytic genes regulator, SorC/CggR subfamily repressor) (natural protein)
chain: GIDPFTMNQLIQAQKKLLPDLLLVMQKRFEILQYIRLTEPIGRRSLSASLGISERVLRGEVQFLKEQNLVDIKTNGMTLTEEGYELLSVLEDTMKDVLGLTLLEKTLKERLNLKDAIIVSGDSDQSPWVKKEMGRAAVACMKKRFSGKNIVAVTGGTTIEAVAEMMTPDSKNRELLFVPARGGLGEDVKNQANTICAHMAEKASGTYRLLFVPGQLSQGAYSSIIEEPSVKEVLNTIKSASMLVHGIGEAKTMAQRRNTPLEDLKKIDDNDAVTEAFGYYFNADGEVVHKVHSVGMQLDDIDAIPDIIAVAGGSSKAEAIEAYFKKPRNTVLVTDEGAAKKLLRDE
notes: cloning artifact that remains at the N-terminus after TEV PR cleavage; DBD and EBD connected by residues 92-94; also called apo-CggR; source: E. coli BL21 (DE3), purified (Ni-NTA, hydroxyapatite, TEV PR cleavage, reverse Ni-NTA, Mono-Q ion exchange); not shown: His6, N-terminal, cleaved
Q: For B7, which “stoichiometry N” value [7] is on record?
A: 2

Q: What about the “stoichiometry N” value [8] of the same binder?
A: 4

B8: OLR39 (dsDNA)
DNA 1: ATTGAACAAAATTTCAATTACCAATTTACATATGTTCAA
DNA 2: TTGAACATATGTAAATTGGTAATTGAAATTTTGTTCAAT
Q: Does B8 bind [4]?
A: binds
